To fix the notation:
B1: CPEB3 Ribozyme (parent)
chain: UAACAGGGGGCCACAGCAGAAGCGUUCACGUCGCAGCCCCUGUCAGAUUCUGGUGAAUCUGCGAAUUCUGCUGUAUAUCUC

The variants in this data set derive from B1. Description: self-cleavage, relative activity (ratio to wild type); higher = more cleavage; in vitro, sequencing. An outline of the steps: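 Libraries of CPEB3 self-cleaving ribozyme mutants came from rounds of error-prone PCR and carried barcodes, which DNA sequencing matched to variants. In vitro transcription used T7 RNA polymerase at 37°C for 5 hours, with a further 15 min in DNase I before EDTA stopped the reaction; the ribozymes cleaved during both steps. The RNA was reverse transcribed with template switching and sequenced on Illumina. Relative activity is the cleaved/total read fraction of a variant divided by that of the unmutated ribozyme, averaged over three batches with at least 5 reads.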
For the variant A35C U69C, the self-cleavage stood at 0.46.

Take A35C U69A: the self-cleavage stood at 0.53.

Turning to A35C U69G, the self-cleavage stood at 0.62.

As to C34U U72A, the self-cleavage was 0.26.

Regarding C34U U72G, the self-cleavage worked out at 0.33.

C34U U72C: the self-cleavage turned out to be 0.63.

Turning to G33C C40A, the self-cleavage amounted to 0.15.

On to G33C A75G, for which the self-cleavage stood at 0.18.

Consider A35C U49C, for which the self-cleavage worked out at 0.4.

As for A35C C39A, the self-cleavage came to 0.31.

On to C34U G46A, for which the self-cleavage came to 0.07.

On to C34A U74G, for which the self-cleavage amounted to 0.29.

As for G33U U72G, the self-cleavage stood at 0.28.

As for G33U U72C, the self-cleavage is 0.19.

Regarding C34U C44A, the self-cleavage came to 0.38.

C34U: the self-cleavage came to 0.35.

As to C34A, the self-cleavage is 0.34.

On to C34G, for which the self-cleavage worked out at 0.33.

Take G33A U72G: the self-cleavage came to 0.24.

In the case of G33A U72A, the self-cleavage was found to be 0.23.

G33A U72C: the self-cleavage worked out at 0.26.

For G33U U67C, the self-cleavage stood at 0.16.

Consider A35C U80C, for which the self-cleavage amounted to 0.84.

Take A35C U80A: the self-cleavage was found to be 0.89.

For C34A A65G, the self-cleavage was 0.26.

As to C34G U69A, the self-cleavage amounted to 0.3.

Consider C34G U69C, for which the self-cleavage was found to be 0.21.

For A35C U66C, the self-cleavage turned out to be 0.5.

A35C U66A: the self-cleavage is 0.21.

Regarding G33A U58C, the self-cleavage was found to be 0.08.

As for C34G U60C, the self-cleavage was determined as 0.15.

In the case of A35C A75G, the self-cleavage came out at 0.87.

A35C A75U: the self-cleavage is 0.97.

For C34U C71A, the self-cleavage is 0.13.

As to A35C U51A, the self-cleavage is 1.

With A35C U51C, the self-cleavage turned out to be 0.79.

As to G33C U48A, the self-cleavage came to 0.15.

For the variant G33C U48C, the self-cleavage was determined as 0.44.

In the case of C34A U41G, the self-cleavage came out at 0.39.

G33U A45G: the self-cleavage amounted to 0.13.

Regarding G33U A45C, the self-cleavage was determined as 0.12.

For the variant C34A U80C, the self-cleavage was 0.34.

In the case of C34A U80G, the self-cleavage came to 0.33.

On to C34A C44U, for which the self-cleavage was determined as 0.08.

For G33U A65G, the self-cleavage worked out at 0.43.

Turning to G33U A65U, the self-cleavage stood at 0.13.

As to G33C U41A, the self-cleavage came out at 0.16.

Turning to A35G A77G, the self-cleavage came to 1.39.

As to A35G A77C, the self-cleavage was determined as 1.27.

As for A35G A77U, the self-cleavage is 1.28.

Take G33C U49C: the self-cleavage amounted to 0.12.

Consider G33U A75U, for which the self-cleavage is 0.81.

Regarding A35G A47C, the self-cleavage is 1.3.

In the case of A35G A47G, the self-cleavage was 1.26.

In the case of A35G A47U, the self-cleavage was 1.16.

As for A35C U48A, the self-cleavage was determined as 0.45.

Turning to A35C U48C, the self-cleavage was 0.47.

A35C G61A: the self-cleavage stood at 0.41.

Consider C34U U69A, for which the self-cleavage was determined as 0.13.

In the case of C34U U69C, the self-cleavage is 0.35.

As to G33A U43G, the self-cleavage was determined as 0.34.

As for G33A U43A, the self-cleavage is 0.32.

As to G33A U43C, the self-cleavage worked out at 0.29.

As for G33A C59U, the self-cleavage turned out to be 0.24.

As to G33C U76C, the self-cleavage stood at 0.12.

C34U U76A: the self-cleavage turned out to be 0.5.

Regarding C34U U76C, the self-cleavage was 0.35.

Consider C34G G63C, for which the self-cleavage was found to be 0.24.

Consider G33A U69C, for which the self-cleavage stood at 0.27.

Take G33A U69G: the self-cleavage was 0.16.

A35C A65G: the self-cleavage was found to be 0.34.

Consider C34G U58C, for which the self-cleavage came to 0.15.

With C34G U58A, the self-cleavage came to 0.11.

Consider G33C U78C, for which the self-cleavage turned out to be 0.09.

With G33C U78A, the self-cleavage was 0.08.

On to C34A A47G, for which the self-cleavage came to 0.31.

Take A35C C50A: the self-cleavage turned out to be 0.92.

As to C34U U78C, the self-cleavage is 0.3.

For C34G U78A, the self-cleavage is 0.26.

As for C34G U78C, the self-cleavage worked out at 0.22.

For the variant C34U U49C, the self-cleavage was determined as 0.16.

With G33C C79U, the self-cleavage came to 0.19.

In the case of A35C U72G, the self-cleavage worked out at 0.43.

In the case of A35C U72C, the self-cleavage amounted to 1.14.

In the case of A35C U78C, the self-cleavage was found to be 0.73.

Consider A35C U78A, for which the self-cleavage stood at 0.74.

For G33A G70U, the self-cleavage was 0.71.

Regarding G33A G70C, the self-cleavage came out at 0.26.

Consider A35C U41G, for which the self-cleavage turned out to be 0.2.

Consider A35C U41A, for which the self-cleavage was 0.47.

Consider A35C U41C, for which the self-cleavage was 0.72.

Regarding A35C U67G, the self-cleavage turned out to be 0.39.

For the variant A35C U67A, the self-cleavage amounted to 0.23.

For A35C U67C, the self-cleavage was 0.23.

In the case of C34G C59A, the self-cleavage turned out to be 0.18.

For the variant C34G C59G, the self-cleavage stood at 0.14.

For C34A A64G, the self-cleavage stood at 0.14.

In the case of A35C U54C, the self-cleavage came to 0.8.

As for A35G A64G, the self-cleavage was 1.28.

Turning to A35G A64U, the self-cleavage was determined as 1.12.

For the variant A35G A64C, the self-cleavage was 0.98.

As for C34U G70A, the self-cleavage was 0.14.

Take C34A U78C: the self-cleavage is 0.32.

With C34A U78A, the self-cleavage was determined as 0.16.

As for A35G C50A, the self-cleavage came out at 1.1.

With A35G C50U, the self-cleavage worked out at 1.35.

Consider C34U U41A, for which the self-cleavage worked out at 0.4.

With C34U U41G, the self-cleavage is 0.12.

For the variant C34U U41C, the self-cleavage is 0.5.

In the case of C34A G70C, the self-cleavage worked out at 0.17.

As to G33C A45G, the self-cleavage was found to be 0.23.

For the variant G33C A45U, the self-cleavage was 0.17.

For the variant C34G C68A, the self-cleavage amounted to 0.1.

On to C34G C68U, for which the self-cleavage came to 0.15.

Take C34A U66C: the self-cleavage turned out to be 0.46.

With C34G U66C, the self-cleavage was determined as 0.23.

In the case of A35C U74C, the self-cleavage came to 1.17.

Turning to C34G U67C, the self-cleavage turned out to be 0.13.

On to A35C U76C, for which the self-cleavage was 0.96.

As to A35C U76G, the self-cleavage is 0.77.

Take C34A U60C: the self-cleavage is 0.14.

Take A35G A65U: the self-cleavage was determined as 0.96.

A35G A65G: the self-cleavage was determined as 1.19.

Turning to A35G A65C, the self-cleavage was found to be 0.67.

Consider C34G A75G, for which the self-cleavage came to 0.15.

As to G33A U51A, the self-cleavage came to 0.26.

Regarding G33A U51C, the self-cleavage amounted to 0.37.

Turning to G33A U51G, the self-cleavage amounted to 0.19.

Regarding C34G C62G, the self-cleavage worked out at 0.04.

Turning to A35G A75U, the self-cleavage was 1.27.

A35G A75G: the self-cleavage worked out at 1.31.

Consider A35G A75C, for which the self-cleavage was found to be 1.25.

On to G33C U60C, for which the self-cleavage turned out to be 0.11.

In the case of G33C U60G, the self-cleavage was determined as 0.12.

As to G33C U60A, the self-cleavage was found to be 0.25.

With G33A U80A, the self-cleavage worked out at 0.29.

For G33A U80G, the self-cleavage stood at 0.14.

With G33A U80C, the self-cleavage was 0.31.

As for G33C C38U, the self-cleavage was determined as 0.12.

On to C34G U72A, for which the self-cleavage was found to be 0.08.

Consider C34G U72C, for which the self-cleavage came to 0.22.

On to C34G U72G, for which the self-cleavage was 0.15.

As for G33U G46A, the self-cleavage came to 0.44.

As to G33C A64G, the self-cleavage was 0.18.

As to G33A G63U, the self-cleavage worked out at 0.1.

Turning to G33A G63A, the self-cleavage came out at 0.14.

Regarding C34G A77C, the self-cleavage was found to be 0.08.

For G33C A77G, the self-cleavage amounted to 0.11.

G33U A56U: the self-cleavage amounted to 0.42.

Consider G33U A56G, for which the self-cleavage was determined as 0.29.

Consider A35C U60C, for which the self-cleavage amounted to 0.48.

In the case of C34U A35U, the self-cleavage was 0.27.

Consider C34U A35G, for which the self-cleavage is 0.36.

Consider C34G U51C, for which the self-cleavage stood at 0.29.

With C34U G52U, the self-cleavage came to 0.33.

On to C34G G42A, for which the self-cleavage was determined as 0.62.

Turning to C34U C68U, the self-cleavage stood at 0.3.

G33U A57G: the self-cleavage amounted to 0.28.

As to G33C A57G, the self-cleavage amounted to 0.13.

Take G33U G61C: the self-cleavage was 0.13.

On to A35G A45U, for which the self-cleavage amounted to 1.13.

Consider A35G A45G, for which the self-cleavage was 1.26.

For the variant A35G A45C, the self-cleavage turned out to be 1.17.

As to C34G U76G, the self-cleavage was determined as 0.32.

As for C34U A45C, the self-cleavage is 0.17.

Regarding C34U A45G, the self-cleavage stood at 0.34.

Turning to G33U U58C, the self-cleavage stood at 0.13.

Source of the values: the RNAGym collection of RNA variant scans (doi:10.1093/nar/gkz1192).
